Reference: patent publication US20220411483A1 (Chugai, published 2022)

Columns and labels:
[1] = target: T1, human FcγRIIa R type extracellular domain with C-terminal His tag (human, UniProt P12318 34-217); assay: SPR, antibody captured, FcgR analyte
T1 construct: extracellular domain; also called FcgRIIaR
T1 sequence (looked up): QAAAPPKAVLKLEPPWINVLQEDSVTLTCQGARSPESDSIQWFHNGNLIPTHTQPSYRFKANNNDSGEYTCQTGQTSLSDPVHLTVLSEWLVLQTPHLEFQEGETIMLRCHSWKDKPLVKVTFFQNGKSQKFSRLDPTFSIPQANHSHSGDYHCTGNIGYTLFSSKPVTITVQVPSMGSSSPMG

[2] = target: T2, human FcγRIa extracellular domain with C-terminal His tag (human, UniProt P12314 16-292); assay: SPR, antibody captured, FcgR analyte
T2 construct: Whole entry named; also called FcgRIa

[3] = target: T3, human FcγRIIb extracellular domain with C-terminal His tag (human, UniProt P31994 43-217); assay: SPR, antibody captured, FcgR analyte
T3 construct: extracellular domain; also called FcgRIIb
T3 sequence (looked up): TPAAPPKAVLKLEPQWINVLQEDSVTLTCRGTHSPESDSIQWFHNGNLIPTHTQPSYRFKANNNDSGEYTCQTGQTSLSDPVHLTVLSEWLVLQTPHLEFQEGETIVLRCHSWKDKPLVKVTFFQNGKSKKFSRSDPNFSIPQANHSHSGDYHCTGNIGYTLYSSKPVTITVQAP

[4] = target: T1, human FcγRIIa R type extracellular …; assay: SPR, KD of IL6R-G1d/IL6R-L divided by KD of variant
[5] = target: T4, human FcγRIIa H type extracellular domain with C-terminal His tag (human, UniProt P12318 34-217); assay: as above
T4 construct: extracellular domain; also called FcgRIIaH
T4 sequence (looked up): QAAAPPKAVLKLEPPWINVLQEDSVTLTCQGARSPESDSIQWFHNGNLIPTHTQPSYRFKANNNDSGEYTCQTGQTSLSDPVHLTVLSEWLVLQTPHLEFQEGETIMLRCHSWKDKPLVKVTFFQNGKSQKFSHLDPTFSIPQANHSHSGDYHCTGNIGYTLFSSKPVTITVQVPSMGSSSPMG

[6] = target: T2, human FcγRIa extracellular domain with …; assay: as above
[7] = target: T3, human FcγRIIb extracellular domain with …; assay: as above
[8] = target: T5, human FcγRIIIa V type extracellular domain with C-terminal His tag (human, UniProt P08637 17-208); assay: as above
T5 construct: extracellular domain; also called FcgRIIIaV
T5 sequence (P08637 17-208 F176V): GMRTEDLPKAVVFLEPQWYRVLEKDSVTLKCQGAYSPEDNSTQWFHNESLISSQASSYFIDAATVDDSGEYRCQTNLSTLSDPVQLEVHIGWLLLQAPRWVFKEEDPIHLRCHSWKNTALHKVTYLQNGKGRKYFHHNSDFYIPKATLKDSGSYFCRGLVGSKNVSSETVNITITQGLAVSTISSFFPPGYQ

T2 sequence (P12314 16-292): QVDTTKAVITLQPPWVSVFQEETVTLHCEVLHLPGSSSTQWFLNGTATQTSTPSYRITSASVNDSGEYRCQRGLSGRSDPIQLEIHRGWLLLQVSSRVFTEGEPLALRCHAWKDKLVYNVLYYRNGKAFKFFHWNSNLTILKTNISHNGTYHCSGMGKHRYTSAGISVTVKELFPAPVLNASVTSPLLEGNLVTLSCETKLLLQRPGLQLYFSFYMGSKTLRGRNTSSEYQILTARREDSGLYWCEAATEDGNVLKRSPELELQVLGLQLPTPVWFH

B1: IL6R-P763/IL6R-L (antibody, human IgG1, kappa)
heavy: QVQLQESGPGLVKPSETLSLTCAVSGHSISHDHAWSWVRQPPGEGLEWIGFISYSGITNYNPSLQGRVTISRDNSKNTLYLQMNSLRAEDTAVYYCARSLARTTAMDYWGEGTLVTVSSASTKGPSVFPLAPSSKSTSGGTAALGCLVKDYFPEPVTVSWNSGALTSGVHTFPAVLQSSGLYSLSSVVTVPSSSLGTQTYICNVNHKPSNTKVDKKVEPKSCDKTHTCPPCPAPELLGGDSVFLFPPKPKDTLMISRTPEVTCVVVDVAEEDGEVKFNWYVDGVEVHNAKTKPREEQYNSTYRVVSVLTVLHQDWLNGKEYKCKVSNKALPAPIEKTISKAKGQPREPQVYTLPPSRDELTKNQVSLTCLVKGFYPSDIAVEWESNGQPENNYKTTPPVLDSDGSFFLYSKLTVDKSRWQQGNVFSCSVMHEALHNHYTQKSLSLSP
light: not shown
- Kd [1]: 1600 nM
- Kd [2]: 0.73 nM
- Kd [3]: 100 nM
- Relative FcgRIIaR-binding Activity [4]: 0.69
- Relative FcgRIIaH-binding Activity [5]: 0.034
- Relative FcgRIa-binding Activity [6]: 0.438
- Relative FcgRIIb-binding Activity [7]: 21
- Relative FcgRIIIaV-binding Activity [8]: 0.014

B2: IL6R-P764/IL6R-L (antibody, human IgG1, kappa)
heavy: QVQLQESGPGLVKPSETLSLTCAVSGHSISHDHAWSWVRQPPGEGLEWIGFISYSGITNYNPSLQGRVTISRDNSKNTLYLQMNSLRAEDTAVYYCARSLARTTAMDYWGEGTLVTVSSASTKGPSVFPLAPSSKSTSGGTAALGCLVKDYFPEPVTVSWNSGALTSGVHTFPAVLQSSGLYSLSSVVTVPSSSLGTQTYICNVNHKPSNTKVDKKVEPKSCDKTHTCPPCPAPELLGGDSVFLFPPKPKDTLMISRTPEVTCVVIDVSEEDGEVKFNWYVDGVEVHNAKTKPREEQYNSTYRVVSVLTVLHQDWLNGKEYKCKVSNKALPAPIEKTISKAKGQPREPQVYTLPPSRDELTKNQVSLTCLVKGFYPSDIAVEWESNGQPENNYKTTPPVLDSDGSFFLYSKLTVDKSRWQQGNVFSCSVMHEALHNHYTQKSLSLSP
light: not shown
- Kd [1]: 2100 nM
- Kd [2]: 3.7 nM
- Kd [3]: 50 nM
- Relative FcgRIIaR-binding Activity [4]: 0.52
- Relative FcgRIIaH-binding Activity [5]: 0.026
- Relative FcgRIa-binding Activity [6]: 0.086
- Relative FcgRIIb-binding Activity [7]: 42
- Relative FcgRIIIaV-binding Activity [8]: 0.006

B3: IL6R-P765/IL6R-L (antibody, human IgG1, kappa)
heavy: QVQLQESGPGLVKPSETLSLTCAVSGHSISHDHAWSWVRQPPGEGLEWIGFISYSGITNYNPSLQGRVTISRDNSKNTLYLQMNSLRAEDTAVYYCARSLARTTAMDYWGEGTLVTVSSASTKGPSVFPLAPSSKSTSGGTAALGCLVKDYFPEPVTVSWNSGALTSGVHTFPAVLQSSGLYSLSSVVTVPSSSLGTQTYICNVNHKPSNTKVDKKVEPKSCDKTHTCPPCPAPELLGGDSVFLFPPKPKDTLMISRTPEVTCVVIDVAHEDGEVKFNWYVDGVEVHNAKTKPREEQYNSTYRVVSVLTVLHQDWLNGKEYKCKVSNKALPAPIEKTISKAKGQPREPQVYTLPPSRDELTKNQVSLTCLVKGFYPSDIAVEWESNGQPENNYKTTPPVLDSDGSFFLYSKLTVDKSRWQQGNVFSCSVMHEALHNHYTQKSLSLSP
light: not shown
- Kd [1]: 2100 nM
- Kd [2]: 1.8 nM
- Kd [3]: 53 nM
- Relative FcgRIIaR-binding Activity [4]: 0.52
- Relative FcgRIIaH-binding Activity [5]: 0.028
- Relative FcgRIa-binding Activity [6]: 0.178
- Relative FcgRIIb-binding Activity [7]: 39.6
- Relative FcgRIIIaV-binding Activity [8]: 0.008

B4: IL6R-P766/IL6R-L (antibody, human IgG1, kappa)
heavy: QVQLQESGPGLVKPSETLSLTCAVSGHSISHDHAWSWVRQPPGEGLEWIGFISYSGITNYNPSLQGRVTISRDNSKNTLYLQMNSLRAEDTAVYYCARSLARTTAMDYWGEGTLVTVSSASTKGPSVFPLAPSSKSTSGGTAALGCLVKDYFPEPVTVSWNSGALTSGVHTFPAVLQSSGLYSLSSVVTVPSSSLGTQTYICNVNHKPSNTKVDKKVEPKSCDKTHTCPPCPAPELLGGDSVFLFPPKPKDTLMISRTPEVTCVVVDVAEEDGEVKFNWYVDGVEVHNAKTKPREEQYNSTYRVVSVLTVLHQDWLNGKEYKCKVSNKGLPSSIEKTISKAKGQPREPQVYTLPPSRDELTKNQVSLTCLVKGFYPSDIAVEWESNGQPENNYKTTPPVLDSDGSFFLYSKLTVDKSRWQQGNVFSCSVMHEALHNHYTQKSLSLSP
light: not shown
- Kd [1]: 2200 nM
- Kd [2]: 0.97 nM
- Kd [3]: 290 nM
- Relative FcgRIIaR-binding Activity [4]: 0.5
- Relative FcgRIIaH-binding Activity [5]: 0.025
- Relative FcgRIa-binding Activity [6]: 0.33
- Relative FcgRIIb-binding Activity [7]: 7.2
- Relative FcgRIIIaV-binding Activity [8]: 0.008

B5: IL6R-P768/IL6R-L (antibody, human IgG1, kappa)
heavy: QVQLQESGPGLVKPSETLSLTCAVSGHSISHDHAWSWVRQPPGEGLEWIGFISYSGITNYNPSLQGRVTISRDNSKNTLYLQMNSLRAEDTAVYYCARSLARTTAMDYWGEGTLVTVSSASTKGPSVFPLAPSSKSTSGGTAALGCLVKDYFPEPVTVSWNSGALTSGVHTFPAVLQSSGLYSLSSVVTVPSSSLGTQTYICNVNHKPSNTKVDKKVEPKSCDKTHTCPPCPAPELLGGDSVFLFPPKPKDTLMISRTPEVTCVVIDVAHEDGEVKFNWYVDGVEVHNAKTKPREEQYNSTYRVVSVLTVLHQDWLNGKEYKCKVSNKGLPSSIEKTISKAKGQPREPQVYTLPPSRDELTKNQVSLTCLVKGFYPSDIAVEWESNGQPENNYKTTPPVLDSDGSFFLYSKLTVDKSRWQQGNVFSCSVMHEALHNHYTQKSLSLSP
light: not shown
- Kd [1]: 2800 nM
- Kd [2]: 3.3 nM
- Kd [3]: 170 nM
- Relative FcgRIIaR-binding Activity [4]: 0.39
- Relative FcgRIIaH-binding Activity [5]: 0.027
- Relative FcgRIa-binding Activity [6]: 0.097
- Relative FcgRIIb-binding Activity [7]: 12.4
- Relative FcgRIIIaV-binding Activity [8]: 0.008

B6: IL6R-P767/IL6R-L (antibody, human IgG1, kappa)
heavy: QVQLQESGPGLVKPSETLSLTCAVSGHSISHDHAWSWVRQPPGEGLEWIGFISYSGITNYNPSLQGRVTISRDNSKNTLYLQMNSLRAEDTAVYYCARSLARTTAMDYWGEGTLVTVSSASTKGPSVFPLAPSSKSTSGGTAALGCLVKDYFPEPVTVSWNSGALTSGVHTFPAVLQSSGLYSLSSVVTVPSSSLGTQTYICNVNHKPSNTKVDKKVEPKSCDKTHTCPPCPAPELLGGDSVFLFPPKPKDTLMISRTPEVTCVVIDVSEEDGEVKFNWYVDGVEVHNAKTKPREEQYNSTYRVVSVLTVLHQDWLNGKEYKCKVSNKGLPSSIEKTISKAKGQPREPQVYTLPPSRDELTKNQVSLTCLVKGFYPSDIAVEWESNGQPENNYKTTPPVLDSDGSFFLYSKLTVDKSRWQQGNVFSCSVMHEALHNHYTQKSLSLSP
light: not shown
- Kd [1]: 2800 nM
- Kd [2]: 5.4 nM
- Kd [3]: 120 nM
- Relative FcgRIIaR-binding Activity [4]: 0.39
- Relative FcgRIIaH-binding Activity [5]: 0.02
- Relative FcgRIa-binding Activity [6]: 0.059
- Relative FcgRIIb-binding Activity [7]: 17.5
- Relative FcgRIIIaV-binding Activity [8]: 0.005
